This note sets out measurements from the nanobody polyreactivity screen of Harvey et al. (2022).

This series can be described thus: yeast display, Sf9 membrane polyspecificity reagent, FACS + sequencing; frameworks hold sequencing errors. A digest of the protocol:
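Using colony PCR, genes from sorted yeast display clones were amplified, then sequenced on MiSeq at 2 × 250 and filtered by CDR length. The clones had been stained with 10% biotinylated, detergent-solubilized Sf9 membrane reagent for 1 hour at 4 °C and sorted by FACS into low and high (top ~1%) gates on anti-HA and streptavidin fluorescence. Polyreactivity labels come from the gate of origin.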
On to “QVQLVESGGGLVQAGGSLRLSCAASGRTFIRYTTGWYRQAPGTERELVAAITSTGRTYYADSVKGRFTISRDNAKNTVYLQMNSLKPEDTAVYYCAAEAGYGDYYYGYDYWGQGTQVTVSS”, for which the “polyreactivity (PSR sort gate)” value was “low polyreactivity”. As for “QVQLVESGGGLVQAGGSLRLSCAASGSTFRFNAMGWYRQAPGKEREFVAAIRFTGGSTYYADSVKGRFTISRDNAKNTVYLQMNSLKPEDSAVYYCNNADEYSTVEYDYWGQGTQVTVSS”, the “polyreactivity (PSR sort gate)” value was “low polyreactivity”. With “QVQLVESGGGLVQEGGSLRLICAASGSTFIYNAMGWYRQAPGKERELVASISTSGGSTYYADSVKGRFTISRDNAKNTVYFQMNSLIPEDTAVYYCAKRYFFKYGYWGQGTQVTVSS” the entry was “high polyreactivity”. Then “QVQLVESGGGLVQAGGSLRLSCSASGIIFVRNAMGWYRQAPGKERELVAAITWRGSTYYADSVKGRFTISRDNAKNTVYLQMNSLKPEDTAVYYCAAVKPHYTSFRDYYWGQGTQVTVSS”, with “high polyreactivity”. Take “QVQLVESGGGLVQAGGSLRLSCAASGIIFYDNAMGWYRQAPGKERELVATINYSGDSTYYADSVKGRFTISRDNAKNTVYLQMNSLKPADTAVYYCATDGAWQYYWVYSHEYWGQGTQVTVSS”: the “polyreactivity (PSR sort gate)” value is on record as “low polyreactivity”. Then “QVQLVESGGGLDQARGSLRLSCAASAPTFNSNAMGWYRQAPGKERDLVADINGGGSTYYADSVKGRFTISRDNAKNTVYLQMNSLKPEDTAVYYCAKCYTWYVWYPHGYWGQGTQVTVSS”, with “low polyreactivity”; and “QVQIVDSGGGLVQAGGRLRLTCAASGSTFYVYTMGWSRQAPGKESELFDRISSGGSTKYADSVKGRFTISRVNANNTVYLQMNILKPEDTAVYYCNADGLYLFGISYGKFLKYGHWGHGTQVTVSS”, with “low polyreactivity”.

As for “QVQLEESGGGLVQAGGSLRLSCAASGFIFDYYMGWYIQAPGKERELVARISYTGGSTYYADCVKGRFTISRDNAKNTVYLQMNSLKPEDTAVYYCATRGAEAERFASYDFDYWGQGTQVTVSS”, the “polyreactivity (PSR sort gate)” value is on record as “low polyreactivity”. Then “QVQLVESGGGLVQAGGSLRLSCAASGFIFSKNVMGWYRQAPGKERELVARITRSGGTTYYADSVKGRFTISRDNAKNTVYLQMNSLKPEDTAVYYCAARRYGSTSISWYDYWGQGTQVTVSS”, with “high polyreactivity”; and “QVQLVESGGGLVQAGCSLRLSCAASGSIFGYNAMGWYRQAPGKERELVAAITGSGGSTYYADSVKGRFTISRDNAKNTVYLQMNSLKPEDTAVYYCADDLFGGPLGYWDYDYWGQGTQVTVSS”, with “low polyreactivity”. With “QVQLVESGGGLVQAGGSLRLSCAAYGFIFSYYTMGWYRQAPGKERELVAAISYSGGSTYYADSVKGRFTISRDNAKNNVYLQMNSLKPEDTAVYYCTAVAAATYDYWGQGTQVTVSS” the entry was “high polyreactivity”.

In the case of “QVQLVESGGGLVQAGGSRRLSCAASGRVFFNNAMGWYRQAPGKDREWVAGITSGSSTNYADSVKGRFTISRDNAKNTVYLQMNSLKPEYTAVDYCNKAPSWWDVRVPFDYWGQGTQVTVSS”, the “polyreactivity (PSR sort gate)” value is given as “low polyreactivity”. Then “QVQLVESGGGLVQAGGSHRLSCAASGSIFKDNAMGWYRQAPGKERELVAAITSGASTNYADSVKGRFTMSRDNAKNTVYLQMNSLKPEDTAVYYCAAGTRPTRFVGTKYDYWGQGTQVTVSS”, with “low polyreactivity”; and “QVQLVESGGGLVQAGGSLRLSCAASGGTFYRNAMGWYRQAPGKERELVASISRTGGSTYYADSVKGRFTISRDIAKNTVYLQMNSLKPEDTAVYYCAKKQPRYSYFDNDYWGQGTQVTVSS”, with “high polyreactivity”.

For “QVQLVESAGGLDQAGGSLRLSCAASGFTFSVYVMGWYRQAPGKERELVASISKRGGSTTYADSVKGRFTISRDNAKNTVYLQMNSLKPEDTAVYYCAALGPGYYWGQGTQVTVSS”, the “polyreactivity (PSR sort gate)” value was “high polyreactivity”. With “QVQLVESGGGLVQAGGSLRLSCAASGSIFRFNAMGWNRPAPGKERELVAAITSSGGSTYYADSVKGRFTISRDNAKNTVYLQMNSLKPEDTAVYYCAKRWLYPISYDYWGQGTQVTVSS” the entry was “high polyreactivity”; with “QVQLVESGGGLVQAGGSLRLSCADSGRLFYPYAMGWYTQAPGTERELVAAIRRSGVDTYYADSVKGRFTISRDNAKNTVYLQMNSLKPEDTAVYYCAADPYSFFPHYDSWGQGTQVTVSS”, “low polyreactivity”; with “QVQLVESGGGLVQAGGSLRLSCAASGSTFQPYAMGWYIQAPGKEREFVATISGSAGSTYYADSVKGRFKISRDNAKNTVYLQMNSLKPEDTAVYYCNADSGWFGYDYWGQGTQVTVSS”, “low polyreactivity”. With “QDHLVESGGGLVQAGGSLRLSCAASGRTFGRNAMGWYRQAPGKERDFVAAITSSGGSTYYADSVKGRFTISRDNAKNTVYFQMNSLKPEDSAVFYCARSTRYYSWRRMDYWGQGTQVTVSS” the entry was “high polyreactivity”; with “QVQLVESGGGLVQAGGSLRLSCAASGRIFVNNAMGWYRPAPGKERELVAAISKRGGSTYYADSLKGRFTISRDNAMNTVYLHMNSLKPEDTAVYYCAASGYRYPIDGDYWGQGTEVTVSS”, “high polyreactivity”; with “QVQLVESGGGLVQAGGSLRLSCAASGSIFRSNALGWYRQAPGKERELVAAISWSGGRTYYADSVKGRFTISRDNAKNTVSLQMTSLKPEDTAVYYCAVGFRTLHGDYGYWGQGTQVTVSS”, “high polyreactivity”. With “QVQLVESGGGLVQAGGSLRLSCAASGRTFYQYDMGWYRQAPGKERDLVAAIDWSGGSTYYADSVKGRFTISRDNAKNTVYLQMNSLKPEDTAVYYCNADAYPHPVVGYDYWGQGTQVTVSS” the entry was “low polyreactivity”; with “QVQLVESGGGLVQAGGSLRLSCAASGRIFWYNAMGWYRQAPGKERELVAAISSGGSTSYADSVKGRFTISRDNAKNTVYLQMNSLKPEDTAVYYCAKDDERKQGQYPPYDSWGQGTQVTVSS”, “low polyreactivity”. For “QVQLVESGGGLVQAGGSLRLSCAASGLIFNIYAMGWYRQAPGKERELVAAISKSGGSTYYADSVKGRFTISRDNAKNTVYLQMNSLKPEDTAVYYCAVRSMRVDKYGYWGQGTQVTVSS”, the “polyreactivity (PSR sort gate)” value is “high polyreactivity”.

As to “QVQLVESGGGLVQAGGSLRLTCAASGRIFGRYAMGWYRQAPAKERELVATITYSGGTTYYADSVKGRFTISRDNAKNTVYLQMNSLKPEDTAVYYCNARSGRQLARYGYWGQGTQVTVSS”, the “polyreactivity (PSR sort gate)” value was “high polyreactivity”. With “QVQLVETGGGLVQAGGSLRLSCDASGRTFRIYGMGWYRQAPGKERELVAAISYSTGGTYYADSVKGRFTISRDNAKNTVYLQMTSLKPEDTAVYYCAAVVYAYLYADYDYWGQGTQVTVSS” the entry was “low polyreactivity”; with “QVQLVESGGGLVQAGGSLRLSCAASGSIFFSNTMGWYRQAPGKERELVASITGDSSTNYADSVKGRFTISRDNAKNTVYLQMNSLKPEDTAVYYCNAGRVLRYVGHYSGDLEYWGQGTQVTVSS”, “low polyreactivity”; with “QVQLVESGGGLDQAGGSLRLSCAASGLILRRYDMGWYRQAPGKERELVAAISGSGGRTYYADSVKGRFTISRDNAKNTVYLQMNSLKPEDTAVYYCAAEYSYYYDQYSYDYWGQGTQVTVSS”, “high polyreactivity”. Then “QVQLVESGGGLVQAGGSLRLSCAASGISFRRYTMGSYRQAPGKERELVDTISLSDGNTYYADSVKGRFTISRDNAKNTVYLQMNSMKPEDTAVYYCNARHTWHQSYDYWGQGTQVSVSS”, with “low polyreactivity”.

With “QVQLVESGGGLVQAGGSLRLSCAASGRTFRSYAMGWYRQAPGKERELVAGISYNGGSTYYADSVKGRFTISRDNAKNTVYLQMNSLKPEDTAVYYCAATDHYRLYDYWGLGTQVTVSS”, the “polyreactivity (PSR sort gate)” value was “low polyreactivity”. Take “QVQLVESGGGLVQAGGSLRLSCAASGFIFYRNTMGWYRQAPGKERELVAAISVSGGSTNYADSVKGRFTISRDNAKNTVYLQMNSLKPEDTAVYYCAARVRDSLVYGGWDDYWGQGTQVTVSS”: the “polyreactivity (PSR sort gate)” value is on record as “high polyreactivity”. On to “QVQLVESGGGLVQAGGSLRLSCAASGSTFEYNAMGWYRQAPGKERELVASSTNYADSVKGRFTISRDNAKNTVYLQMNSLKPEDTAVYYFAREQGVNRNHDYWGQGTQVTVSS”, for which the “polyreactivity (PSR sort gate)” value is listed as “low polyreactivity”. With “QVQLQESAGARQPAPELRGERIYFWLLLMCWYRQAPGEERELVAGINDGASTNYADSVKGRFTISRDNARNTVYLKMNSLKPGDTAVYYCAVWQPVLIWFYYWGQGTHVTVSS” the entry was “high polyreactivity”; with “QVQLVESGGGLVQAGGSLRLSCAASGSILDGYVMGWYRQAPGKDRELVAAISTNSDRTYYADSVKGRFTISRDNAKNTVDLQMNSLKPEDTAVYYCNARKLRRAGFPYDYWGQGTQVTVSS”, “high polyreactivity”.

In the case of “QVQLVESGRGLVQAGGSLRLSCAASGLTFVYYDMGWYRQAPGKERELVAAITYIGTSTYYADSVKGRFTISRDNAKNTVYLQMNSLKPEDTAVYYCAAPFPIRSGESWRTDLGYDYWGQGTQVTVSS”, the “polyreactivity (PSR sort gate)” value is recorded as “low polyreactivity”.

Take “QVQLVESGGALVQAGGSLRLSCAASGRTFAVNAMGWYRQAPGKEREFVAAISKRGGSTYYADSVKGRFTISRDNAKNTVYLQMNSLTPEDTAVYYCAADYTKHYWGQGTQVTVSS”: the “polyreactivity (PSR sort gate)” value is reported as “high polyreactivity”.

As to “QVQLVESGGGLVQAGGSLRLSCAASGIILYYYVMVWYRQEPGKEREFVAAINRSGTSTYYADSVKGRFTISRDNAKNTVYLQMNSLKPADTAVYYCAAERYWSGGVFDYDYWGQGTQVTVSS”, the “polyreactivity (PSR sort gate)” value is listed as “high polyreactivity”. “QVQLVESGGGLVQAGGRLRLTCAASGINFRSYAMGWYRQATGKERELVAGISLSGGSTYYADSVKGRFTISRDNAKNSDYLQMNSLKPEDTAVYYCATRYHYFGALRYGYCGQGTQVTVSS”: the “polyreactivity (PSR sort gate)” value is “high polyreactivity”.

As to “QVQLVESGGGLVQAGGSLRLSCAASGSIFGRYTMGWYRQAPGKERELVAAISSSGGRTYYADSVKGRFTISRDNAKNTVFLQMNSLKPEDTAVYYCNNGYGYEYYWGQGTQVTVSS”, the “polyreactivity (PSR sort gate)” value is “low polyreactivity”. Then “QVQLQESGGGLVQAGGSLRLSCAASGNISVTGVMGWYRQAPGKERELVASIGIGGTTYYADSVKGRFSISRDNAKNTVYLQMNSLKPEDTAVYYCGARYVYSAYSYWGQGSQVTVSS”, with “low polyreactivity”; and “QVQLVESGGGLVQAGGSLRLICAASGRIFTYNGMGWYRQAPGKERELVAAISSGGSTYADSVKGRFTISRDNAKNTVYLQMNSLKPEDTAVYYCAAVKGYQGSSYQRVDWEGDYWGQGTQVSVSS”, with “low polyreactivity”.
